In US20070196872A1:

What was measured:
LRP5 (Zmax1) = LRP5 (Zmax1) (UniProt O75197); experiment: cell-based or functional assay
Frizzled4 = Frizzled4 (UniProt Q9ULV1); experiment: cell-based or functional assay
Chain of UniProt Q9ULV1 (Q9ULV1 37-537 limits assumed): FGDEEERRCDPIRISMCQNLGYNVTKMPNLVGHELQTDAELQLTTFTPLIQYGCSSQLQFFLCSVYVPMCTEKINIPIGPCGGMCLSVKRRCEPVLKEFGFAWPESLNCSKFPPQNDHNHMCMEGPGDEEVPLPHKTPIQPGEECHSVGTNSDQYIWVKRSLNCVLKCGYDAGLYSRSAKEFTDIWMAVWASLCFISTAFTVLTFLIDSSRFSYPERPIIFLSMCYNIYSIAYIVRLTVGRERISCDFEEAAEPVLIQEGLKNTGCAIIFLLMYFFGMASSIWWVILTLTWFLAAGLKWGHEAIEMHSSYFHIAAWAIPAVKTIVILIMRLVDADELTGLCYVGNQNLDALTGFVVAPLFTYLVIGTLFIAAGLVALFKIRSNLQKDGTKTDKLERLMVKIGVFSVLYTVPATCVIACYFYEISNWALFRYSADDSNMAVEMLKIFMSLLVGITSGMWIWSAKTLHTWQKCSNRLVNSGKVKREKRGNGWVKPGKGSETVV

Chain of Norrin (Q00604 25-133 limits assumed): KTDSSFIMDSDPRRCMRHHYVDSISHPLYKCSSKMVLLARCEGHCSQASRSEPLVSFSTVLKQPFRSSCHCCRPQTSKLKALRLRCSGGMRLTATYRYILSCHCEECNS
Chain of UniProt O75197 (O75197 32-1615 limits assumed): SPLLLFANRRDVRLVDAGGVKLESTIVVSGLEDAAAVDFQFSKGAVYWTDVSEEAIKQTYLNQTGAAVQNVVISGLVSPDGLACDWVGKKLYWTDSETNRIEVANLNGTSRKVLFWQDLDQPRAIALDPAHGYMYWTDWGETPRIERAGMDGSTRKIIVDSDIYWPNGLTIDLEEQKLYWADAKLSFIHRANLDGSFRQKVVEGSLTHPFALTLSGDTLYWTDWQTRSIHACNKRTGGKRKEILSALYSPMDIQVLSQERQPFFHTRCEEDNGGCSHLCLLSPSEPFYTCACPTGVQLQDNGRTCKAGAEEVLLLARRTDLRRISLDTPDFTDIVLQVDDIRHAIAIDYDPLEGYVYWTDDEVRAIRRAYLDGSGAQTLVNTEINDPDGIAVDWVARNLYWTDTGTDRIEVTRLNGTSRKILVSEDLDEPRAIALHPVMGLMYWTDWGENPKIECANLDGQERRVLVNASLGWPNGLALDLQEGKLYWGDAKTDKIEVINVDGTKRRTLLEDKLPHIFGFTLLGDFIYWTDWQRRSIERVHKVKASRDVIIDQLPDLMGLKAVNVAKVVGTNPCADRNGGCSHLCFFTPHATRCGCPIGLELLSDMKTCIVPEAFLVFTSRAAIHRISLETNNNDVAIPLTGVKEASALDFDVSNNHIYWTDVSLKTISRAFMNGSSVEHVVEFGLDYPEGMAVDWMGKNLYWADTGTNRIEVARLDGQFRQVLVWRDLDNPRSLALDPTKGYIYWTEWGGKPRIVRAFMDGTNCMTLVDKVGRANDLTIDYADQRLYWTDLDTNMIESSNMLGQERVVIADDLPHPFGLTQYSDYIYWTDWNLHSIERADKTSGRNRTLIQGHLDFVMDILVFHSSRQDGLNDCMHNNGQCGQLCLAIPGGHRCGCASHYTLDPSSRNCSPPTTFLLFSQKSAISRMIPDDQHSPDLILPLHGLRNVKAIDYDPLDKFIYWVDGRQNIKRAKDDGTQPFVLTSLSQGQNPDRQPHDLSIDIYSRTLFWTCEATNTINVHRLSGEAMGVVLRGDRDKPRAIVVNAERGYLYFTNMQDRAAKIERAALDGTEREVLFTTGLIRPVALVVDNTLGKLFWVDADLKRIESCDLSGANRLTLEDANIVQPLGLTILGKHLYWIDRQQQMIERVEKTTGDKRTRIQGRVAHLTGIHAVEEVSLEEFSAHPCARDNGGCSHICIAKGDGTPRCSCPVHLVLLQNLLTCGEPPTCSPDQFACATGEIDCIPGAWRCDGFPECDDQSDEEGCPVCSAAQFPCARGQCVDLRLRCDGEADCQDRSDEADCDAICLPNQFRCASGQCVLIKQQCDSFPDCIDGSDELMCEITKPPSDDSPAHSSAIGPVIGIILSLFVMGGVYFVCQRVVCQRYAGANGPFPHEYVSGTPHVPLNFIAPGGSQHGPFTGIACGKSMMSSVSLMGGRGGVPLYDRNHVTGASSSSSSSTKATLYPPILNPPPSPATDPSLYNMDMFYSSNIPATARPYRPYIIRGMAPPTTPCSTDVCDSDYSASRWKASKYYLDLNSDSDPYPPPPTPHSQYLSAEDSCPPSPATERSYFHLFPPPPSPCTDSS

Work on “Norrin (from UniProt Q00604 25-133) (ligand)” yielded a ratio of TCF-luci to renilla luminescence, Norrin and LRP5 co-transfected in U20S cells (LRP5 (Zmax1)) of 6 fold, a TCF activity, further enhancement when Fz4, LRP5 and Norrin were all co-transfected in U20S cells (Frizzled4) of 2 to 6 fold and a TCF response (TCF-luci to renilla), Norrin and Fz4 co-transfected in HEK-293A cells (Frizzled4) of 6 fold. The TCF-signal, LRP5 co-transfected along with Fz4 and Norrin in HEK-293 cells (Frizzled4) was under 16 fold, the ratio of TCF-luci to renilla luminescence, Norrin cDNA alone transfected in U20S cells (endogenous Fz4 inferred) (Frizzled4) was 2 to 3 fold and the ratio of TCF-luci to renilla signal, Fz4 and Norrin co-transfected in U20S cells (Frizzled4) was 15 fold.
